From patent US20240287172A1 (SCIRHOM, published 2024)

T1: hiR2-FL-T586A-T7 (human, UniProt Q6PJF5 1-856)
T1 sequence: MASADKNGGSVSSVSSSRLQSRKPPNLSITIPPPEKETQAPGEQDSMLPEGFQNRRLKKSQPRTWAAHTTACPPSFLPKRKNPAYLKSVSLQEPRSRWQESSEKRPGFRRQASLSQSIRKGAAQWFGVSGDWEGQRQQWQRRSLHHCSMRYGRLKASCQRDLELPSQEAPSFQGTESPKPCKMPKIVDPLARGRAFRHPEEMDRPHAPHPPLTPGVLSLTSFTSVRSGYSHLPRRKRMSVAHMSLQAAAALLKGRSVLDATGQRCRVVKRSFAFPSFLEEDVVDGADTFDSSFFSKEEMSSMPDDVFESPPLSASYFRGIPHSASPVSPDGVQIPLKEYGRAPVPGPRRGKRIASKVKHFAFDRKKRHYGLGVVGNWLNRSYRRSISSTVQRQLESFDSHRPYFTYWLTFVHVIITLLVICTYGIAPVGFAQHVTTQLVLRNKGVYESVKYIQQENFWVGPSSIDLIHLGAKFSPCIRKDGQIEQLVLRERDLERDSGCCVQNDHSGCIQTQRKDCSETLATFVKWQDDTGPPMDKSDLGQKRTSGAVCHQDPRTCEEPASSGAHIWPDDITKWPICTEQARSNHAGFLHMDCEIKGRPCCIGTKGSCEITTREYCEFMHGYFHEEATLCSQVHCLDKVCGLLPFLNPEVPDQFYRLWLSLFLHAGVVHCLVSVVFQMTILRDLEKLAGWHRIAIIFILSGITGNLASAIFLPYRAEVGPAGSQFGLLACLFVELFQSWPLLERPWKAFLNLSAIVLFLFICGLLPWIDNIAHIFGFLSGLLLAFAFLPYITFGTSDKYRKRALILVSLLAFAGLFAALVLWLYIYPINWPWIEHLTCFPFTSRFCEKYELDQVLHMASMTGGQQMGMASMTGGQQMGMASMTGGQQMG

T2: hiR2-FL-P532A-T7 (human, UniProt Q6PJF5 1-856)
T2 sequence: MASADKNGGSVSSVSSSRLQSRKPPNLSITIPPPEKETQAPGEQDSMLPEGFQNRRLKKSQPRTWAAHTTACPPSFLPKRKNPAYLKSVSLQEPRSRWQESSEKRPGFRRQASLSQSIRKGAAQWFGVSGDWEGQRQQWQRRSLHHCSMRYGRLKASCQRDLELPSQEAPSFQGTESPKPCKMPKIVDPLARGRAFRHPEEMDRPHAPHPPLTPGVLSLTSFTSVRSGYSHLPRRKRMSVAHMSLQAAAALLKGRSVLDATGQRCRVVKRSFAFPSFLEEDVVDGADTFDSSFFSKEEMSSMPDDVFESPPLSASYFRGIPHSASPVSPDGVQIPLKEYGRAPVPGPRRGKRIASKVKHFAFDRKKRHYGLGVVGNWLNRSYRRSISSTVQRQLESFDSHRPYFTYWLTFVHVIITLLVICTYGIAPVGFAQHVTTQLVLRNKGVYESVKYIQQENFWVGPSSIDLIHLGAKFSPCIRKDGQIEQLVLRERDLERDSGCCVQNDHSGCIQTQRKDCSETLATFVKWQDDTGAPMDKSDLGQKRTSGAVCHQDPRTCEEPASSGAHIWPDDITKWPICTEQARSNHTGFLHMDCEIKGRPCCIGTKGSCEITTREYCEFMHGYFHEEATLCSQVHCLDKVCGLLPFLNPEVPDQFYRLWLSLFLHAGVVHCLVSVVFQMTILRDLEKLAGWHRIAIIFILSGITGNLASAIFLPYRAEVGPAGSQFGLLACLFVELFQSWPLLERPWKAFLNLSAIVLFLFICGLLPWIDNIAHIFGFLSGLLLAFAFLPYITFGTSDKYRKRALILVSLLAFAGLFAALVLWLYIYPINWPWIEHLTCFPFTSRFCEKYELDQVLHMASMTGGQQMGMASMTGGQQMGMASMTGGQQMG


How the values were obtained:
hiR2-FL-T586A-T7 = molecular target: T1, hiR2-FL-T586A-T7; test: FACS on MEF-DKO cells expressing the variant, 3 µg/ml antibody
Method in brief: (§1)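 Read-out is PE fluorescence by flow cytometry after two-step staining: antibody at 3 μg/ml for 1 hour on ice, then PE-labelled goat anti-mouse IgG F(ab′)2 (1:100) for 1 hour on ice.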

hiR2-FL-P532A-T7 = molecular target: T2, hiR2-FL-P532A-T7; test: as above
Method in brief: as §1

Binder	loss of binding vs wild type (hiR2-FL-T586A-T7)	loss of binding vs wild type (hiR2-FL-P532A-T7)
antibody 3 (antibody, V domains shown, mouse IgG, kappa light chain; also called clone #3; purified antibody 3) VH: QVTLKESGPGILQPSQTLSLTCSFSGFSLTTFAMGIGWVRQPSGKGLEWLAHIWWDGEKYNNPVLKSRLTISKDTSKNQVFLRIANVDTPDTATYYCARISSIYYIIDNWGQGTSVTVSS VL: DIVLTQSPATLSVTPGHSVSLSCRASQSISNNLHWYQKKSHESPRLLIKYVSQSISGIPSRFSGSGSGTDFTLSINSVETEDFGMYFCQQSYNWPLTFGAGTKLELK	≥ 30%	–
antibody 5 (antibody, V domains shown, mouse IgG, kappa light chain; also called clone #5; purified antibody 5) VH: QVTLKESGPGILQPSQTLSLTCSFSGFSLSTFGMGVGWIRQPSGKGLEWLAHIWWDDEKYYNSALKSRLTISKATSKNQAFLKIANVDTADTATYYCARISNYGSNYWYFNVWGTGTTVTVSS VL: QVVLTQSPALMSASPGEKVTMTCSAGSSVSCMYWYQQKPGSSPRVLIYDTSNLASGVPARFTGSGSGTSYSLTISRMEAEDAASYYCQQWNSYPLTFGAGTKLELK	≥ 30%	≥ 30%
antibody 44 (antibody, V domains shown, mouse IgG, kappa light chain; also called clone #44; purified antibody 44) VH: QVTLKESGPGILQPSQTLSLTCSFSGFSLSTFGMGVGWIRQPSEKGLEWLAHIWWDDDKYYNPALKSRLTISKDTSKNQIFLKITNVDTAETATYYCSRIGNYGSNYWYFDVWGTGTTVTVSS VL: QIVLTQSPAVMSASPGEKVTMTCTASSSVYYMYWYQQTPGSSPRLLIYDTSNLASGVPVRFSGSGSGTSYSLTISRMEAEDAATYYCQQWNTYPLTFGAGTKLELK	–	≥ 30%
